Data reported in article PMC10702835, “Recognition of centromere‐specific histone Cse4 by the inner kinetochore Okp1‐Ame1 complex” (EMBO Reports, 2023).
Where no end group is shown, it is not given here.

How the values were obtained:
Okp1‐Ame1 = experiment: GST pulldown, Okp1-Ame1; format: binding, Saccharomyces cerevisiae; conditions: glutathione agarose, 4°C, 1 h, 20 mM Tris, pH 8.5, 200 mM NaCl, 1 mM TCEP; SDS-PAGE
Description: (§1) Figure 3 Biochemical investigation of Okp1‐Ame1‐Cse4^END binding and disruptive point mutations • A GST pulldown assay for Cse4 binding. The indicated COMA complex proteins were tested for their association with immobilized GST‐Cse4^END. • B Fluorescence polarization assay for quantification of Cse4 binding affinities (n = 3 independent replicates). FITC‐labeled Cse4^END peptide was incubated with increasing concentrations of the indicated protein complexes. See also Table 1. • C, D GST pulldown assays as in panel A. Cse4^END and its mutants (L41D, L42D, or L41,42A) were tested in panel C. The indicated Okp1‐Ame1 complexes were tested for their association with GST‐Cse4^END in panel D. Source data are available online for this figure.
(§2) GST‐Cse4^28‐60 was mixed with Okp1‐Ame1, COMA, COMA‐Nkp1‐Nkp2, or Okp1^125‐275 – Ame1^124‐231 and the mixed samples were incubated with glutathione agarose resin at 4°C for 1 h in binding buffer containing 20 mM Tris, pH 8.5, 200 mM NaCl and 1 mM TCEP. Resin was washed at least three times with the same buffer to remove unbound protein, and bound protein then eluted with glutathione. Samples of input and eluate were collected for analysis by SDS–PAGE.

COMA complex = experiment: GST pulldown, COMA; format: binding, Saccharomyces cerevisiae; conditions: glutathione agarose, 4°C, 1 h, 20 mM Tris, pH 8.5, 200 mM NaCl, 1 mM TCEP; compared with COMA-Nkp1-Nkp2
Description: as §1, §2

[1] = test system: minimal Okp1‐Ame1 complex (Okp1^125‐275‐Ame1^124‐231); experiment: GST pulldown, minimal Okp1-Ame1; format: binding, Saccharomyces cerevisiae; conditions: glutathione agarose, 4°C, 1 h, 20 mM Tris, pH 8.5, 200 mM NaCl, 1 mM TCEP
Description: Figure EV3 Further biochemical characterization of the Okp1‐Ame1‐Cse4^END interaction • Pulldown assay showing binding between the truncated Okp1‐Ame1 complex used for crystallography (Okp1^125‐275l‐Ame1^124‐231) and GST‐Cse4^END. • Recombinant proteins used for pulldowns in Fig 3 were tested for their association with GST to determine the level of non‐specific binding. Results of a GST pulldown assay are shown. • The minimal Okp1‐Ame1 complex used for crystallography was tested for its association with FITC‐Cse4^END in a fluorescence polarization experiment. The measured dissociation constant is ~750 nM (see Materials and Methods; n = 3 independent experiments). • GST‐Cse4^END and its mutants were tested for Okp1‐Ame1 binding. • Full‐length mutant Okp1‐Ame1 complex (EYAA or I195Y as indicated) was tested for its association with FITC‐Cse4^END. • Various Okp1‐Ame1 mutants (indicated above) were tested for binding to GST‐Cse4^END. • Various Okp1‐Ame1 mutants were tested for Cse4^END binding as in panel F. Source data are available online for this figure.
GST‐Cse4^28‐60 was mixed with Okp1‐Ame1, COMA, COMA‐Nkp1‐Nkp2, or Okp1^125‐275 – Ame1^124‐231 and the mixed samples were incubated with glutathione agarose resin at 4°C for 1 h in binding buffer containing 20 mM Tris, pH 8.5, 200 mM NaCl and 1 mM TCEP. […]

COMA‐Nkp1‐Nkp2 complex = experiment: GST pulldown, COMA-Nkp1-Nkp2; format: binding, Saccharomyces cerevisiae; conditions: glutathione agarose, 4°C, 1 h, 20 mM Tris, pH 8.5, 200 mM NaCl, 1 mM TCEP; compared with COMA
Description: as §1, §2

[2] = target: T1, Okp1‐Ame1 (WT, full length) with 10 μM Nkp1‐Nkp2 (S. cerevisiae (budding yeast), UniProt P53298 1-406; P38313 1-324; Q12493 1-238; Q06162 1-153); experiment: fluorescence polarisation; as a2 (20 nM FITC‐Cse4^28‐60, full-length Okp1‐Ame1 titrated, 200 mM NaCl) with 10 μM Nkp1‐Nkp2 added in excess; conditions: both partners purified
T1 construct: Okp1, budding yeast, full length; Ame1, budding yeast, full length; Nkp1, budding yeast, full length; Nkp2, budding yeast, full length; the methods call it a titrated complex (Okp1‐Ame1 with Nkp1/2); also called Okp1‐Ame1 W(T) + 10 μM Nkp1‐Nkp2; Okp1‐Ame1 with Nkp1/2; source: E. coli, purified heterodimers Okp1‐Ame1 and Nkp1‐Nkp2, mixed; copies: + + +
T1 sequence (P53298 whole entry, chain 1 of 4): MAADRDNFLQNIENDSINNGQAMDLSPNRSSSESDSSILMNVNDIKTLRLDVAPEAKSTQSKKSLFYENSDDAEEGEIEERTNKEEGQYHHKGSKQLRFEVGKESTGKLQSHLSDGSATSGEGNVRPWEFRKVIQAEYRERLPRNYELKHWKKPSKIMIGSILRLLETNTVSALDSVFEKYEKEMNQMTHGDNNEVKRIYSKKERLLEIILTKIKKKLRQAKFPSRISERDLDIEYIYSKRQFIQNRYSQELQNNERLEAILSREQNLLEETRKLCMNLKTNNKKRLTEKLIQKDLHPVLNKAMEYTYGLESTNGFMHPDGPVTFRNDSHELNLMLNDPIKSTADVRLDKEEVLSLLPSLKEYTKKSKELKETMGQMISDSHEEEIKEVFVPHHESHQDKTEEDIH
T1 sequence (P38313 whole entry, chain 2 of 4): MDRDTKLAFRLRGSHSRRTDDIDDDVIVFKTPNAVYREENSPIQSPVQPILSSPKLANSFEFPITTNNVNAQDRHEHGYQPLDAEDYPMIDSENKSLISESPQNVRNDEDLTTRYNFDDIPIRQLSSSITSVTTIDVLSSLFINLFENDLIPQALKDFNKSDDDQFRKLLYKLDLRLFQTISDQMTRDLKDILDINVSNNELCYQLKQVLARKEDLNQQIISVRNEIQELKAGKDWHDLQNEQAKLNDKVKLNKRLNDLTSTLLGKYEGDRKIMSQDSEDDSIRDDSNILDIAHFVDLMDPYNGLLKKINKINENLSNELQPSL
T1 sequence (Q12493 whole entry, chain 3 of 4): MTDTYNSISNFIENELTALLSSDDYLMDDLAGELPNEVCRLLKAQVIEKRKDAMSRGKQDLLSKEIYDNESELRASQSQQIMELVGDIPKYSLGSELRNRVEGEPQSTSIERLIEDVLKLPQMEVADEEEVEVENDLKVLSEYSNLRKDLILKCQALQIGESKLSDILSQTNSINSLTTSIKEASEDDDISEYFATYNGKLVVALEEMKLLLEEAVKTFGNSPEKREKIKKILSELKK
T1 sequence (Q06162 whole entry, chain 4 of 4): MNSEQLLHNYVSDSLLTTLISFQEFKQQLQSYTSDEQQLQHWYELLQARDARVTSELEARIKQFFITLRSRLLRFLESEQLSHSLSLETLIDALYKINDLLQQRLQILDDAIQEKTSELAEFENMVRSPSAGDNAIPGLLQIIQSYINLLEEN

[3] = target: T2, Okp1‐Ame1(I195Y), full length (S. cerevisiae (budding yeast), UniProt P53298 1-406; P38313 1-324, I195Y); experiment: fluorescence polarisation; 20 nM FITC‐Cse4^28‐60, full-length Okp1‐Ame1 titrated; 100 mM HEPES pH 7.5, 200 mM NaCl, 1 mM TCEP; 30 min at room temperature; one site – total binding fit; triplicate; conditions: both partners purified
T2 construct: Okp1, budding yeast, full length; Ame1, budding yeast, full length, with I195Y; source: recombinant; copies: 1 + 1
T2 sequence (P53298 whole entry, chain 1 of 2): as the sequence (P53298 whole entry, chain 1 of 4) above
T2 sequence (P38313 whole entry I195Y, chain 2 of 2): as the sequence (P38313 whole entry, chain 2 of 4) above, with I195Y counted along it

[4] = target: T3, Okp1‐Ame1 heterodimer, full length, wild type (S. cerevisiae (budding yeast), UniProt P53298 1-406; P38313 1-324); experiment: as above; conditions: both partners purified
T3 construct: Okp1, inner kinetochore (Ctf19c) protein of budding yeast, full length; Ame1, inner kinetochore (Ctf19c) protein of budding yeast, full length; also called Okp1‐Ame1 (WT); FL; copies: 1 + 1
T3 sequence (P53298 whole entry, chain 1 of 2): as the sequence (P53298 whole entry, chain 1 of 4) above
T3 sequence (P38313 whole entry, chain 2 of 2): as the sequence (P38313 whole entry, chain 2 of 4) above

[5] = target: T4, Okp1(EYAA)‐Ame1, full length (S. cerevisiae (budding yeast), UniProt P53298 1-406; P38313 1-324, E235A | Y238A); experiment: as above; conditions: both partners purified
T4 construct: Okp1, budding yeast, full length, with E235A and Y238A; Ame1, budding yeast, full length; also called okp1‐E235,Y238A; okp1‐E235A,Y238A; source: recombinant; copies: 1 + 1
T4 sequence (P53298 whole entry E235A/Y238A, chain 1 of 2): as the sequence (P53298 whole entry, chain 1 of 4) above, with E235A, Y238A counted along it
T4 sequence (P38313 whole entry, chain 2 of 2): as the sequence (P38313 whole entry, chain 2 of 4) above

[6] = target: T5, minimal Okp1^125‐275 – Ame1^124‐231 heterodimer (S. cerevisiae (budding yeast), UniProt P53298 125-275; P38313 124-231); experiment: fluorescence polarisation; 20 nM FITC‐Cse4^28‐60, truncated Okp1‐Ame1 titrated; 100 mM HEPES pH 7.5, 600 mM NaCl, 1 mM TCEP; 30 min at room temperature; 20 μM points left out of the fit; conditions: both partners purified
T5 construct: Okp1, budding yeast, residues 125-275; Ame1, budding yeast, residues 124-231; no tag; also called truncated Okp1‐Ame1 complex; minimal Okp1‐Ame1 complex used for crystallography; source: E. coli Rosetta 2 (pLysS), pet-Duet co-expression, purified (TALON, TEV cleavage, ion exchange, gel filtration); not shown: His6, N-terminal, cleaved; copies: 1 + 1
T5 sequence (P53298 125-275, chain 1 of 2): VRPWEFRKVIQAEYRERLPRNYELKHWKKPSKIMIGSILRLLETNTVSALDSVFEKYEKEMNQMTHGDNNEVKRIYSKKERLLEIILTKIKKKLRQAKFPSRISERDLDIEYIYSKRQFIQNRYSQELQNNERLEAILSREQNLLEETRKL
T5 sequence (P38313 124-231, chain 2 of 2): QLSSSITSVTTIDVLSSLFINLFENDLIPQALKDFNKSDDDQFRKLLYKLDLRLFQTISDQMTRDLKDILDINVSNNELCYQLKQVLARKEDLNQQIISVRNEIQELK

[7] = target: T5, minimal Okp1^125‐275 – Ame1^124‐231 …; experiment: crystal structure; Okp1^125‐275 – Ame1^124‐231 mixed with Cse4^28‐60 peptide 1:1.3; hanging drop, 18°C, 19% PEG 8000, 0.55 M lithium sulfate; 1.8 Å, space group P4(2)2(1)2; conditions: both partners purified
Okp1^125‐275 = target: T6, Okp1^125‐275 (S. cerevisiae (budding yeast), UniProt P53298 125-275); experiment: as above; conditions: both partners purified
T6 construct: Okp1, budding yeast, residues 125-275; Single chain of m2, written for the pairwise contacts of the crystal structure; also called Okp1 (chain of the crystallised minimal heterodimer); source: E. coli Rosetta 2 (pLysS), co-expressed with Ame1^124‐231, purified; not shown: His6, N-terminal, cleaved
T6 sequence (P53298 125-275): as the sequence (P53298 125-275, chain 1 of 2) above

Ame1^124‐231 = target: T7, Ame1^124‐231 (S. cerevisiae (budding yeast), UniProt P38313 124-231); experiment: as above; conditions: both partners purified
T7 construct: Ame1, budding yeast, residues 124-231; no tag; Single chain of m2, written for the pairwise contacts of the crystal structure; also called Ame1 (chain of the crystallised minimal heterodimer); source: E. coli Rosetta 2 (pLysS), co-expressed with Okp1^125‐275, purified
T7 sequence (P38313 124-231): as the sequence (P38313 124-231, chain 2 of 2) above

[8] = target: T5, minimal Okp1^125‐275 – Ame1^124‐231 …; experiment: pull-down; GST‐Cse4^28‐60 (or GST) mixed with prey, held on glutathione agarose resin, 4°C 1 h, 20 mM Tris pH 8.5, 200 mM NaCl, 1 mM TCEP; eluted with glutathione; SDS–PAGE; conditions: both partners purified
[9] = target: T3, Okp1‐Ame1 heterodimer, full length, …; experiment: as above; conditions: both partners purified
[10] = target: T8, six‐protein COMA‐Nkp1‐Nkp2 complex (S. cerevisiae (budding yeast), UniProt P53298 1-406; P38313 1-324; Q02732 1-369; Q06675 1-368; Q12493 1-238; Q06162 …); experiment: as above; conditions: both partners purified
T8 construct: Okp1, budding yeast, full length; Ame1, budding yeast, full length; Ctf19, budding yeast, full length; Mcm21, budding yeast, full length; Nkp1, budding yeast, full length; Nkp2, budding yeast, full length; constructs as in Hinshaw & Harrison 2019; source: E. coli, purified heterodimers Okp1‐Ame1, Ctf19‐Mcm21 and Nkp1‐Nkp2; copies: + + + + +

[11] = target: T9, four‐protein COMA complex (Ctf19‐Okp1‐Mcm21‐Ame1) (S. cerevisiae (budding yeast), UniProt P53298 1-406; P38313 1-324; Q02732 1-369; Q06675 1-368); experiment: as above; conditions: both partners purified
T9 construct: Okp1, budding yeast, full length; Ame1, budding yeast, full length; Ctf19, budding yeast, full length; Mcm21, budding yeast, full length; constructs as in Hinshaw & Harrison 2019; source: E. coli, purified heterodimers Okp1‐Ame1 and Ctf19‐Mcm21; copies: + + +
T9 sequence (P53298 whole entry, chain 1 of 4): as the sequence (P53298 whole entry, chain 1 of 4) above
T9 sequence (P38313 whole entry, chain 2 of 4): as the sequence (P38313 whole entry, chain 2 of 4) above
T9 sequence (Q02732 whole entry, chain 3 of 4): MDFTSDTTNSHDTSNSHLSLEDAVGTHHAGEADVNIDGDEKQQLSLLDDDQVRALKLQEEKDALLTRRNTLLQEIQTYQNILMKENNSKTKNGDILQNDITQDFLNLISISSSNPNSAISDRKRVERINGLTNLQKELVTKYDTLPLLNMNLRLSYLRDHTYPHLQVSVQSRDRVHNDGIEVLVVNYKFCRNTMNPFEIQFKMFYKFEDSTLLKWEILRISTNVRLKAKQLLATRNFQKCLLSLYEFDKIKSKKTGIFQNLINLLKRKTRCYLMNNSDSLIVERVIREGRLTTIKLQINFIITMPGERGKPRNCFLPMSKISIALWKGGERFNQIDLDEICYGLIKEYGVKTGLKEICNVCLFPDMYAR
T9 sequence (Q06675 whole entry, chain 4 of 4): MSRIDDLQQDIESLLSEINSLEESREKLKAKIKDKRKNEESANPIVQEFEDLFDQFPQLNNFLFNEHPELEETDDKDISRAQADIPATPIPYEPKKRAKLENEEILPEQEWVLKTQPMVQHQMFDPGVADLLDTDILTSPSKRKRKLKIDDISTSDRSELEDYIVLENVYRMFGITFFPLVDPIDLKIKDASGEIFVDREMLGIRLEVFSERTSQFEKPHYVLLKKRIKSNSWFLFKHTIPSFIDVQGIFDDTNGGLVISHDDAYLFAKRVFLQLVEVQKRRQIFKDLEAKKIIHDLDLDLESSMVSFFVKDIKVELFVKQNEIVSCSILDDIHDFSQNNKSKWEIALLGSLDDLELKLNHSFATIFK

Molecule: cse4‐L41D: Cse4^END L41D mutant, GST fusion (GST-TEV-Cse4^28-60(L41D)) (AGDQQSINDRALSDLQRTRATKNLFPRREERRR; not fully specified (N-terminus))
- binding in GST pulldown (Okp1‐Ame1): failed to bind

Molecule: cse4‐L42D: Cse4^END L42D mutant, GST fusion (GST-TEV-Cse4^28-60(L42D)) (AGDQQSINDRALSLDQRTRATKNLFPRREERRR; not fully specified (N-terminus))
- binding in GST pulldown (Okp1‐Ame1): failed to bind

Molecule: GST‐Cse4^END: Cse4 residues 28–60 with TEV‐cleavable N‐terminal Glutathione S‐transferase tag (AGDQQSINDRALSLLQRTRATKNLFPRREERRR; not fully specified (N-terminus))
- binding in GST pulldown (COMA complex): equally well
- binding in GST pulldown [1]: preserved GST‐Cse4^END binding
- binding in GST pulldown (COMA‐Nkp1‐Nkp2 complex): equally well
- binding in GST pulldown (Okp1‐Ame1): bound Okp1‐Ame1

Molecule: cse4‐L41,42A: Cse4^END L41,42A mutant, GST fusion (AGDQQSINDRALSAAQRTRATKNLFPRREERRR; not fully specified (N-terminus))
- binding in GST pulldown (Okp1‐Ame1): failed to bind

B1: FITC‐Cse4^28‐60 peptide (peptide, UniProt P36012 28-60, looked up)
peptide: AGDQQSINDRALSLLQRTRATKNLFPRREERRR
modifications: not fully specified (N-terminus); also: FITC label, position not given here
notes: Cse4, S. cerevisiae, residues 28-60; also called FITC‐Cse4^END; FITC‐labeled Cse4^END peptide; source: synthetic peptide (Tufts University Core Facility)
- Kd [2]: 133 nM
- Kd [3]: > 3000 nM
- Kd [4]: 152 nM
- Kd [5]: > 3000 nM
- Kd [6]: ~750 nM

B2: Cse4^28‐60 peptide (Cse4^END peptide) (peptide, UniProt P36012 28-60, looked up)
peptide: B1 peptide
notes: Cse4, S. cerevisiae, residues 28-60 (residues 34-46 ordered in the crystal); also called minimal Cse4^END peptide; source: synthetic peptide (Tufts University Core facility)
- binding result [7]: binds
- binding result (Okp1^125‐275): binds
- binding result (Ame1^124‐231): binds

B3: GST‐Cse4^END (GST fusion of Cse4 residues 28–60) (domain or fragment, S. cerevisiae, UniProt P36012 28-60, looked up)
chain: B1 peptide
notes: Cse4, centromeric histone H3 variant of S. cerevisiae, Essential N-terminal Domain, residues 28-60; The GST tag is TEV-cleavable (pLIC vector) but was kept for the pull-downs; also called GST‐Cse4^28‐60; source: E. coli Rosetta 2 (pLysS), purified (glutathione agarose); not shown: GST, N-terminal, kept
- binding result [8]: binds
- binding result [9]: binds
- binding result [10]: binds
- binding result [11]: binds
